Test results reported in the supplement of paper PMC10567573.
± gives the standard deviation.

Assay: protein stability index of a GFP-peptide fusion (GPS, HEK-293T) (PSI 1-6); higher = more stable
[1] = treatment: DMSO, c terminus: a fixed tail appended
[2] = treatment: MLN4924 1 uM, 8 h, c terminus: a fixed tail appended
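Further: 24-mer peptide tiles fused after GFP, lentivirally expressed, FACS-sorted into six equal bins by GFP/DsRed ratio, decoded by Illumina sequencing, PSI is the read-weighted mean bin number.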

AKAADSPTRNDLESGLGHFSLRVH
protein stability index [1]: 3.19 ± 0.38
protein stability index [2]: 3.42 ± 0.48

RRDGKWQNVHFHRSGSPTVPIKPP [CAMK2D]
protein stability index [1]: 3.32 ± 0.27
protein stability index [2]: 3.54 ± 0.4

PGPMDWVPRYTGVAPQDQCKLTCQ [ADAMTS4]
protein stability index [1]: 3.77 ± 0.35
protein stability index [2]: 4.14 ± 0.36

PEENYPSLQMSSAEMPHTETVSPL [NANOGP8]
protein stability index [1]: 5.25 ± 0.12
protein stability index [2]: 5.28 ± 0.18

AVATASRLGPYVLLEPEEGGRAYQ [TRIB3]
protein stability index [1]: 3.79 ± 0.37
protein stability index [2]: 3.71 ± 0.32

EKKVLEAGMGKVTSASFGEESTPG [HDAC6]
protein stability index [1]: 5.21 ± 0.23
protein stability index [2]: 5.18 ± 0.32

KCASDIFQASNPYLPTRGGTTMAS [TRIM55]
protein stability index [1]: 2.89 ± 0.22
protein stability index [2]: 2.86 ± 0.16

WIHCFEGVTAIIFCVALSDYDLVL [GNAI1]
protein stability index [1]: 3.2 ± 0.53
protein stability index [2]: 3.22 ± 0.24

DARQLFVLAGAAEEGFMTAELAGV [GNAI1]
protein stability index [1]: 2.75 ± 0.37
protein stability index [2]: 2.92 ± 0.31

TRYHLQQARRQQVKQYLSTTLGPK [TFE3]
protein stability index [1]: 3.21 ± 0.15
protein stability index [2]: 3.29 ± 0.2

RVYDGREILTCGRDGEPEPMQKLQ [RBBP5]
protein stability index [1]: 4.02 ± 0.38
protein stability index [2]: 3.94 ± 0.31

YEETGFYEIEIQAEDGGAYLATAK [PCDHGA10]
protein stability index [1]: 3.57 ± 0.14
protein stability index [2]: 3.72 ± 0.29

KRMSELCIDFNKNLNEDDTFLVFS
protein stability index [1]: 2.08 ± 0.25
protein stability index [2]: 2.58 ± 0.11

FVNDLTVTQDGRKIYFTDSSSKWQ [APMAP]
protein stability index [1]: 2.8 ± 0.46
protein stability index [2]: 2.92 ± 0.24

GPDNLVLLNPEKYKAKSRSPGSPV [ADD1]
protein stability index [1]: 4.47 ± 0.25
protein stability index [2]: 4.63 ± 0.13

GENAGSLTHIEAQNKIRACGERLS [PDLIM7]
protein stability index [1]: 4.57 ± 0.26
protein stability index [2]: 4.62 ± 0.14

LEKVECTPSQEHLKHQTVYRLLKC [FEM1A]
protein stability index [1]: 2.85 ± 0.26
protein stability index [2]: 3.07 ± 0.38

ERRPVAQSTDGARGKRGYSRGLHA [SPSB2]
protein stability index [1]: 4.52 ± 0.11
protein stability index [2]: 4.58 ± 0.13

VGYTRGLHVWQITWAMRQRGTHAV [SPSB1]
protein stability index [1]: 2.37 ± 0.52
protein stability index [2]: 2.55 ± 0.52

AVYFAEADDPTSGFSSIPDAFWWA [KCNA3]
protein stability index [1]: 2 ± 0.16
protein stability index [2]: 2.12 ± 0.24

TGAHWMRQPVSFHRVKLTNSTLDP [TBX6]
protein stability index [1]: 2.96 ± 0.074
protein stability index [2]: 3.02 ± 0.16

DELALSLGYAASLEASVQDDAGTS [C2CD2L]
protein stability index [1]: 5.34 ± 0.32
protein stability index [2]: 5.22 ± 0.21

NFLACLASFCVETNNGAGFGLSIL [SCAMP3]
protein stability index [1]: 3.02 ± 0.55
protein stability index [2]: 2.99 ± 0.41

ITTIGYGHAAPGTDAGKAFCMFYA [KCNK9]
protein stability index [1]: 2.9 ± 0.49
protein stability index [2]: 2.8 ± 0.56

CITEDGRTVAVGDIVWGKIHGFPW [PWWP2B]
protein stability index [1]: 2.49 ± 0.5
protein stability index [2]: 2.28 ± 0.45

CTSSWDKNLKIWNVHTGEFRNCGA [WDR88]
protein stability index [1]: 2.17 ± 0.42
protein stability index [2]: 2.56 ± 0.31

IIEVLSNALSKSSAPPITPECRQV [CHGB]
protein stability index [1]: 2.29 ± 0.54
protein stability index [2]: 2.32 ± 0.22

TESEAHYSSQLSQVQSLITNVESQ [KRT34]
protein stability index [1]: 4.83 ± 0.31
protein stability index [2]: 4.78 ± 0.21

SSAGSVSPRSTSVTTTSSASVTTT [KRT13]
protein stability index [1]: 5.25 ± 0.15
protein stability index [2]: 5.23 ± 0.12

VSSSQDGKVIVWDSFTTNKEHAVT [GNB5]
protein stability index [1]: 3.51 ± 0.23
protein stability index [2]: 3.67 ± 0.38

FPLKPMVHRKSCSTGEAGTDGDHN [ZC2HC1C]
protein stability index [1]: 4.53 ± 0.18
protein stability index [2]: 4.38 ± 0.27

QHKDQTAALPLAAEETANLPPSPP [MAP2]
protein stability index [1]: 5.49 ± 0.086
protein stability index [2]: 5.45 ± 0.12

WPSAKSAGWTLATLGEQGLPHQSH [SCNN1D]
protein stability index [1]: 3.36 ± 0.43
protein stability index [2]: 3.17 ± 0.4

QQAMSLAILRVIRLVRVFRIFKLS [KCNA3]
protein stability index [1]: 2.69 ± 0.26
protein stability index [2]: 2.63 ± 0.44

RAARDYKIQNHGHRVLQRLEQRRQ [FCHSD1]
protein stability index [1]: 3.82 ± 0.079
protein stability index [2]: 4.07 ± 0.26

STVGSAISRKLGDMRNSATFKSFE [TPD52L2]
protein stability index [1]: 3.28 ± 0.2
protein stability index [2]: 3.28 ± 0.31

TGVQEVLSALLRATPGEYSVNICG [SPAG8]
protein stability index [1]: 2.5 ± 0.59
protein stability index [2]: 2.23 ± 0.16

KLSPKKTWEGFIGGFFATVVFGLL [CDS2]
protein stability index [1]: 2.33 ± 0.43
protein stability index [2]: 2.01 ± 0.28

GGATFLLTAKQLIKSIVEASKGCQ [TRIM63]
protein stability index [1]: 2.87 ± 0.7
protein stability index [2]: 2.86 ± 0.47

LLKHPNIVRLHDSISEEGFHYLVF [CAMK2D]
protein stability index [1]: 2.42 ± 0.32
protein stability index [2]: 2.2 ± 0.18

MRQDLEEERVALNTEIEKLGRSIV [PKD2L1]
protein stability index [1]: 4.29 ± 0.13
protein stability index [2]: 4.38 ± 0.23

NQNLSNRPSFNRTPIPWLSSGEPV [MYOZ1]
protein stability index [1]: 3.43 ± 0.38
protein stability index [2]: 3.5 ± 0.15

QIFFGRRKDMIAEKLAPSEITEEL [ZNF396]
protein stability index [1]: 3.85 ± 0.14
protein stability index [2]: 3.74 ± 0.13

EGVEIMLGVCASGLLIYRDRLRIN [EPB41L3]
protein stability index [1]: 2.75 ± 2.1
protein stability index [2]: 2.12 ± 0.2

VLKLLLLLLLFGVAGGLVACRVTE [LRRC59]
protein stability index [1]: 2.77 ± 0.73
protein stability index [2]: 2.68 ± 0.81

GTVIGVTSCIVIILIIISVIVQIK [NETO1]
protein stability index [1]: 3.16 ± 0.34
protein stability index [2]: 3.02 ± 0.36

PRGKPPLNTRSQAPLLRWVLTLSF [HMOX1]
protein stability index [1]: 2.81 ± 0.28
protein stability index [2]: 3.1 ± 0.61

KEAGVQKLILTSSASVIFEGVDIK [NSDHL]
protein stability index [1]: 2.99 ± 0.3
protein stability index [2]: 2.84 ± 0.19

SLGYGTNVAATGISQYEDDLPPPP [APBB1IP]
protein stability index [1]: 4.86 ± 0.44
protein stability index [2]: 4.87 ± 0.42

TPSLLRFALASLLQSAPDVKGRVR [ZSWIM9]
protein stability index [1]: 2.5 ± 0.16
protein stability index [2]: 2.53 ± 0.34

EDLQSIIYKLEEHEEFFPAFQAFT [CEP70]
protein stability index [1]: 2.38 ± 0.18
protein stability index [2]: 2.17 ± 0.31

QQIEEQRVQVQVVERAQQVAVQEQ [FLOT1]
protein stability index [1]: 5.17 ± 0.41
protein stability index [2]: 5.03 ± 0.32

CSFCKRAFPSGHLLDAHILEWHDS [ZNF511]
protein stability index [1]: 5.19 ± 0.093
protein stability index [2]: 5.12 ± 0.24

HSVFEFLAFKNDIQFWNSRQSLEG [CLPTM1]
protein stability index [1]: 2.03 ± 0.17
protein stability index [2]: 2.13 ± 0.28

LLWATNEFSLVNVNLQRFGMNGQM [ETS2]
protein stability index [1]: 2.9 ± 0.64
protein stability index [2]: 2.94 ± 0.49

DTGVFAVVNSHSLSLLGKLTISAA [SLC22A15]
protein stability index [1]: 2.5 ± 0.42
protein stability index [2]: 2.33 ± 0.53

WQVLKTHPGDPRFQCSLWHLYPL [POLD4]
protein stability index (treatment: DMSO, c terminus: native): 2.42 ± 0.62
protein stability index (treatment: MLN4924 1 uM, 8 h, c terminus: native): 2.14 ± 0.33

GKSPDTNYLFMGDYVDRGYYSVET [PPP2CA]
protein stability index [1]: 2.73 ± 0.28
protein stability index [2]: 2.87 ± 0.17

SGYMEGYYTFHFLYFKDKIFNVAI [FBXO3]
protein stability index [1]: 3.36 ± 0.48
protein stability index [2]: 2.75 ± 0.15

ELRRRRYEYDHWDAAIHGFRETEK [ALKBH7]
protein stability index [1]: 3.5 ± 0.39
protein stability index [2]: 3.56 ± 0.44

IDSHLLLSVLPQLEFKLKSNDNEE [PDS5B]
protein stability index [1]: 3.32 ± 0.27
protein stability index [2]: 3.09 ± 0.096

CFKSVAKTPYDTSRRQEKSAGDAD [ELOA2]
protein stability index [1]: 4.96 ± 0.3
protein stability index [2]: 5 ± 0.46

KQIKAGAYDFPSPEWDTVTPEAKD [CAMK2A]
protein stability index [1]: 5.34 ± 0.26
protein stability index [2]: 5.27 ± 0.18

MLKAEETCAPSVSYFKCVQKEVLP [CCND1]
protein stability index [1]: 3.52 ± 0.12
protein stability index [2]: 3.55 ± 0.24

METLCLRASFWLALVGCVISDNPE [EDNRA]
protein stability index [1]: 3.25 ± 0.19
protein stability index [2]: 2.7 ± 0.75

PWLCGESFTLADVSLAVTLHRLKF [GDAP1]
protein stability index [1]: 2.65 ± 0.43
protein stability index [2]: 2.35 ± 0.41

ITNVDLREYLSEEVQAVHKNTTYD [USP39]
protein stability index [1]: 4.2 ± 0.24
protein stability index [2]: 4.17 ± 0.19

PAAGRELPPDMTVVPGDHLLEPEV [KCNA3]
protein stability index [1]: 5.3 ± 0.15
protein stability index [2]: 5.31 ± 0.08

SHSRERPYKCVQPDCGKAFVSRYK [PLAGL1]
protein stability index [1]: 3.34 ± 0.23
protein stability index [2]: 3.37 ± 0.17

SRELEPELRRRRYEYDHWDAAIHG [ALKBH7]
protein stability index [1]: 3.87 ± 0.25
protein stability index [2]: 3.92 ± 0.18

MCQTKHSPWADGTPCGPAQACMGG [ADAMTS4]
protein stability index [1]: 3.26 ± 0.43
protein stability index [2]: 3.44 ± 0.4

MLLELTRRGQEPLSALLQFGVTYL [BCL2L13]
protein stability index [1]: 2.63 ± 0.59
protein stability index [2]: 2.4 ± 0.41

GSPGMIYSTRYGSPKRQLQFYRNL [KCNAB2]
protein stability index [1]: 2.44 ± 0.55
protein stability index [2]: 3.1 ± 0.38

QAAKLLGSMEQVSSHFLEQTLDKK [INTS4]
protein stability index [1]: 3.78 ± 0.12
protein stability index [2]: 3.88 ± 0.36

SCSEICYTFIIVPKMLVDLLSQKK [OR10K2]
protein stability index [1]: 2.91 ± 0.77
protein stability index [2]: 2.71 ± 0.79

DWGTPRELTFSYIAFDGVVGSGGR [RTN2]
protein stability index [1]: 1.91 ± 0.22
protein stability index [2]: 2.43 ± 0.37

LECEINTYRSLLESEDCKLPCNPC [KRT34]
protein stability index [1]: 3.81 ± 0.16
protein stability index [2]: 3.94 ± 0.35

FICKECGKAYGWCSELIRHRRVHA [ZNF232]
protein stability index [1]: 3.38 ± 0.3
protein stability index [2]: 3.73 ± 0.33

NDIRIFLEKVLEENAQKKRFNQVL [VPS39]
protein stability index [1]: 2.1 ± 0.24
protein stability index [2]: 2.27 ± 0.29

QLSELRSEMECQNQEYKMLLDIKT [KRT13]
protein stability index [1]: 4.09 ± 0.12
protein stability index [2]: 4 ± 0.29

DGLPLHFFIQTVRPKDTVMCYRVR [MYORG]
protein stability index [1]: 2.15 ± 0.43
protein stability index [2]: 2.24 ± 0.31

QTRMAVSLTAAETLALQGTQGQEK [ZNF232]
protein stability index [1]: 5.15 ± 0.24
protein stability index [2]: 4.98 ± 0.21

PALDIFGDLFESTPEVAAAPKPDA [SNAP91]
protein stability index [1]: 4.57 ± 0.21
protein stability index [2]: 4.67 ± 0.27

QLKIAANPFAKGFRENGRNCKRER [TBX6]
protein stability index [1]: 3.33 ± 0.25
protein stability index [2]: 3.47 ± 0.33

AKYCGHLYGLGSGSSYVQNGTGNA [CNOT7]
protein stability index [1]: 2.8 ± 0.3
protein stability index [2]: 2.78 ± 0.28

AVDAGDPAVEACENRRKVLYQRAP [TCF25]
protein stability index [1]: 4.62 ± 0.21
protein stability index [2]: 5.02 ± 0.22

VKTKKNAPSATIHQGEEEGPLDIW [FBXO34]
protein stability index [1]: 4.21 ± 0.2
protein stability index [2]: 4.4 ± 0.25

NKVAGHPLAQNERCLHMFLQDEII [SNX3]
protein stability index [1]: 2.64 ± 0.2
protein stability index [2]: 2.7 ± 0.46

QGPPMVPPYQGGPPRPPMGMRPPV [ZNF207]
protein stability index [1]: 4.31 ± 0.12
protein stability index [2]: 4.18 ± 0.081
